These results are taken from publication PMC12087451, “The SmWRKY32-SmbHLH65/SmbHLH85 regulatory module mediates tanshinone biosynthesis in Salvia miltiorrhiza”.

For series [1], the target named is T1, GST-SmWRKY32 (Salvia miltiorrhiza, UniProt A0A0D5YAE6 1-129). In words: EMSA; Chemiluminescent EMSA kit (Beyotime GS009) EMSA/Gel-Shift binding buffer, 25 C, 10 min then 20 min with biotin probe, 6% PAGE; salt and pH not stated. To be noted: protein: recombinant; tags: N-terminal GST (pGEX-4T-1); label: biotin (labelled probe); blunt. On the technique in general: In EMSA bound probe runs differently from free probe, usually more slowly.
T1 sequence (A0A0D5YAE6 entry or part of it): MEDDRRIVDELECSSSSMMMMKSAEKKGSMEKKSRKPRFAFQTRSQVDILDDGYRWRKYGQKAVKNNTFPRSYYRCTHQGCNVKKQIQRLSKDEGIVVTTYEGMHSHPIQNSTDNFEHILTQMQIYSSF

Series [2] has as its target T1, GST-SmWRKY32. Put plainly: competition; 50-fold unlabelled mutant competitor; Chemiluminescent EMSA kit (Beyotime GS009) EMSA/Gel-Shift binding buffer, 25 C, 10 min then 20 min with biotin probe, 6% PAGE; salt and pH not stated. Particulars: protein: recombinant; tags: N-terminal GST (pGEX-4T-1); label: none; blunt.

B1: pSmbHLH65 W-box probe (3 copies) (dsDNA)
DNA 1: TTCATTGACCAAATTTCATTGACCAAATTTCATTGACCAAAT
DNA 2: ATTTGGTCAATGAAATTTGGTCAATGAAATTTGGTCAATGAA
Regarding B1, in series [1], the binding result was “binds”.

B2: pSmbHLH65-M cold probe (dsDNA)
DNA 1: TTCAAAAAAAAAATTTCAAAAAAAAAATTTCAAAAAAAAAAT
DNA 2: ATTTTTTTTTTGAAATTTTTTTTTTGAAATTTTTTTTTTGAA
For the molecule B2, the binding result in series [2] is recorded as “no binding”.
